Test results as given in patent US20230295310A1 (ABCELLERA BIOLOGICS, published 2023).

Assays:
[1] = target: T1, human CD3 expressed on cells (human, UniProt P07766 23-207; P04234 22-171; P09693 23-182); experiment: flow cytometry, 25 nM
T1 construct: whole, on cells; CD3 complex on Jurkat cells and on human primary T cells
Experimental: (§1) Purified antibodies were confirmed to bind CD3 expressed on cells using the CytoFLEX S or LX flow cytometers (Beckman Coulter). Antibodies were diluted to 25 nM in FACS buffer (PBS+2% FBS) and were incubated with CD3-expressing cells for 30 minutes at 4° C. […] The median fluorescence intensity of the binding signal for each antibody was normalized to the isotype control to obtain a fold over isotype value. An antibody with a fold over isotype (FOI) of ≥10 was considered to be positive for binding.

[2] = target: T2, cynomolgus monkey CD3 expressed on primary T cells (cynomolgus monkey, UniProt Q95LI5 22-198; Q95LI8 22-171; Q95LI7 23-181); experiment: flow cytometry, 25 nM, cyno primary T cells
T2 construct: whole, on cells; CD3 complex on purified cynomolgus monkey T cells; also called cyno CD3
Experimental: as §1

T1 sequence (P07766 23-207, chain 1 of 3): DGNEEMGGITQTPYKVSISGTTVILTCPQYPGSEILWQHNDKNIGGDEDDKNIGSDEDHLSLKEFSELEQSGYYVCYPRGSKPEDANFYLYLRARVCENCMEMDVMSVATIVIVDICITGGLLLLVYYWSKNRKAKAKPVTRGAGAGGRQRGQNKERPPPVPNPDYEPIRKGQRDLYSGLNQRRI
T1 sequence (P04234 22-171, chain 2 of 3): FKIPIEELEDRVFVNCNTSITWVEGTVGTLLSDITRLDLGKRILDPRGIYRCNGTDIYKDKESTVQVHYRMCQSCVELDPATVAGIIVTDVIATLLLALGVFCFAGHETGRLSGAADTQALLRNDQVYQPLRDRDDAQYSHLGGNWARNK
T1 sequence (P09693 23-182, chain 3 of 3): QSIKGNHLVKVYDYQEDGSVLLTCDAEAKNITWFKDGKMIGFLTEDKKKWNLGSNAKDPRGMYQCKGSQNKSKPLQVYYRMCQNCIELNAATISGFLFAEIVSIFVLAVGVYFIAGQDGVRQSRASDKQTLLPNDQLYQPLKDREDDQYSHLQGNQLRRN
T2 sequence (Q95LI5 22-198, chain 1 of 3): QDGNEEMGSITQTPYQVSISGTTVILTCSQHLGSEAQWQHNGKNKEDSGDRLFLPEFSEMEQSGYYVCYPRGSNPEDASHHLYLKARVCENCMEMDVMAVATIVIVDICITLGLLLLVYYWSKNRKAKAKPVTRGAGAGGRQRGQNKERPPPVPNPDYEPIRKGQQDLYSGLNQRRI
T2 sequence (Q95LI8 22-171, chain 2 of 3): as the sequence (P04234 22-171, chain 2 of 3) above, with I5V, N15K, I20V, S32T, D33N, I34N, T64A, S74N, V83L, H141R counted along it
T2 sequence (Q95LI7 23-181, chain 3 of 3): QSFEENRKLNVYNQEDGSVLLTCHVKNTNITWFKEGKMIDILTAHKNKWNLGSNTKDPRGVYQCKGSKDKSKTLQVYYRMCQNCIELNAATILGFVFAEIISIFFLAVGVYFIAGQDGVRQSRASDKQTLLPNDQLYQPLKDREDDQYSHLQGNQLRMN

Human primary T Cell Binding (FOI) [1] [FOI] | Jurkat Cell Binding (FOI) [1] [FOI] | binding result [2] | Binder
199 | 171 | no binding (tested: FOI >=10 = positive) | mAb 79 (antibody, V domains shown) VH: QVQLVQSGAEVKKPGASVKVSCKASGYIVTGYYMHWVRQAPGHGLEWMGWINPNSGGTNFAQNFQGRVTMTRDTSISTFYMDLNRLTSDDTAVYYCARGGAPVSYWFFDLWGRGTLVTVSS VL: DIQMTQSPSSLSASVGDRVTITCRASQNINSYLNWYHQKPGKAPKVLIYNTSTLKSGVPSRFSGSGSGTYFTLTISSLQPEDFATFYCQQSHSTPFTFGPGTKVDIK
91.4 | 98.7 | no binding (tested: FOI >=10 = positive) | mAb 72 (antibody, V domains shown) VH: EVQLVDSGGGLVQPGGSLRLSCAASGFTFSSYWMSWVRQAPGKGLEWVANIKQDGSEKYYVDSVKGRFTISRDNVKNSLSLEMNSLRAEDTALYYCARDESSSWYWYFDLWGRGTLVTVSS VL: DIQMTQSPSTLSASVGDRVTITCRASQSISKWLAWYQQKPGKAPKLLIYKASSLENGVPSRFSGSGSGTEFTLTISSLQPDDFATYYCQQYSSYSRTFGQGTKVEIK
108 | 100 | no binding (tested: FOI >=10 = positive) | mAb 71 (antibody, V domains shown) VH: QVQLVQSGAEVRKPGASVKVSCKASGYTFTKYDVNWVRQAPGQGLEWMGWMNSNNGNIGYAQKFQGRVTMTRKTSISTAYMELSSLRSEDTAVYYCAREGHYDFWRGFYNFDYWGQGTLVTVSS VL: DIQMTQSPSSLSASVGDRVTITCRASQDIKNDLGWYQQKPGKAPKRLIYAASSLQSGVPSRFSGSGSGTEFTLTISSLQPEDFATYYCLQHNFYPITFGQGTRLEIK
189 | 175 | no binding (tested: FOI >=10 = positive) | mAb 86 (antibody, V domains shown) VH: QVQLAESGGGVVQPGRSLRLSCEASGFTFSGYGMHWVRQAPGKGLDWVAIIYYDGKNKYYADSVKGRFTISRDNSKNTLYLQMNSLRAEDTAVYYCARGGGYNWFDPWGQGTLVTVSS VL: DIQMTQSPSSLSASVGDRVTITCRPSQTISKYLNWYQQKPGKAPKLLIYAASSLQSGVPSRFSGSGSGTDFTLTISSLQPEDFATYYCQQSYITPITFGRGTRLEIK
229 | 241 | no binding (tested: FOI >=10 = positive) | mAb 100 (antibody, V domains shown) VH: QVQLVESGGGVVQPGRSLRLSCVASGFTFRGYGMHWVRQAPGKGLEWVAIIYYDGKNKYYADSVKGRFTISRDNSKNTLYLQMNSLRVEDTALYYCARGGGYNWFDPWGQGTLVTVSS VL: DIQMTQSPSSLSASVGDRVTITCRASQSISTYLNWYQQKPGKAPKLLIYTASSLQSGVPSRFSGSGSGTVFTLTISSLQPEDFAIYYCQRSYSPPFTFGPGTRLDIK
174 | 170 | no binding (tested: FOI >=10 = positive) | mAb 94 (antibody, V domains shown) VH: QVHLVESGGGVVQPGRSLRLSCSASGFTFSGYGMHWVRQAPGKGLEWVALIYFDGRNKYYADSVKGRFTISRDNSKNTLYLQMNSLRAEDTAVYYCARGGGYNWFDPWGQGTLVTVSS VL: DIQMTQSPSSLSASVGDRVTITCRASQSISNYLNWYQQKPGKAPKLLIYLASSLQSGVPSRFSGSGSGTDFTLTINSLQPEDFASYYCQLSYSSPFTFGPGTKVDVN
211 | 192 | no binding (tested: FOI >=10 = positive) | mAb 97 (antibody, V domains shown) VH: QGQLVESGGGVVQPGRSLRLSCAASGFTFRGYGMHWVRQAPGKGLEWVAIIYYDGKNKYYADSVKGRFTISRDNSKNTLYLQMNNLRVEDTAVYYCARGGGYNWFDPWGQGTLVTVSS VL: DIQMTQSPSSLSASIGDRVTITCRASQSISNYLNWYQQKPGKAPKLLIYSASSLQSGVPSRFSGSGSGTDFTLTISNLQPEDFAIYYCQRSYSPPFTFGPGTKLDIR

More lines, now with the values behind:

Binder | Human primary T Cell Binding (FOI) [1] [FOI] | Jurkat Cell Binding (FOI) [1] [FOI] | binding result [2]
mAb 85 (antibody, V domains shown) VH: QVQLVQSGAEVKKPGASVKVSCKASGYTVTGYYMHWVRQAPGQGLEWMGWINPNSGGTNFAQNFQGRVTMTRDTSISTFYMDLNRLRSDDTAVYYCARGGAPVSYWFFDLWGRGTLVTVSS VL: DIQMTQSPSSLSASVGDRVTITCRASQSISRYLNWYQQKPGKAPKVLIYNTSSLKSGVPSRFSGSGSGTDFTLTISSLQPEDFGTFYCQQSHSTPFTFGPGTKVDIK | 195 | 181 | no binding (tested: FOI >=10 = positive)
mAb 66 (antibody, V domains shown) VH: QVQLVQSGAEVKKPGASVKVSCKASGYTVTGYYMHWVRQAPGQGLEWMGWINPNSGGTNFAQNFQGRVTMTRDTSISTFYMDLSRLRSDDTAVYYCARGGAPVSYWFFDLWGRGTLVTVSS VL: DIQMTQSPSSLSASVGDRVTITCRASQSISRYLNWYQQKPGKAPKVLIYNTSSLKSGVPSRFSGSGSGTDFTLTISSLQPEDFATLYCQQSHSTPFTFGPGTKVDIK | 192 | 172 | no binding (tested: FOI >=10 = positive)
mAb 67 (antibody, V domains shown) VH: EVQLVESGGDLVQPGRSLRLSCAASGFTFDDCVIHWVRQAPGKGLEWVSGITWNSGRIGYADSVKGRFTISRDNAKNSLYLQMNSLRVEDTALYYCAKEGNYDFWSTYYRGYFDLWGRGTLVTVSS VL: DIQMTQSPSSLSASVGDRVTITCRASQGIRNDLGWYQQKPGIAPKRLIYAASSLQGGVPLRFSGSGSGTEFTLTISSLQPEDFATYYCLQHNSYPYTFGQGTKLEIK | 72.4 | 70.2 | no binding (tested: FOI >=10 = positive)
mAb 74 (antibody, V domains shown) VH: EVQLVESGGGLVQPGRSLRLSCAASGFTFADYVMHWVRQAPGKGLEWVSGINWNNARIGYVGSVKGRFTISRDNAKNSLYLQMTSLRVEDTALYHCVREGNFDFWSAYYRGFLDLWGRGTLVTVSS VL: DIQMTQSPSSLSASVGDRVTITCRASQGIRSDLGWYQQKPGKAPKRLIYGASSLQGGVPSRFSGSGSGTEFTLTISSLQPEDFATYYCLQHNSYPYTFGQGTKLEIK | 146 | 151 | no binding (tested: FOI >=10 = positive)
mAb 73 (antibody, V domains shown) VH: EVELVESGGGLVQPGRSLRLSCAASGFTFDDKVMHWVRQAPGKGLEWVSCINWNSGHIGYADSVKGRFTISRDNARTSLYLQMNSLRPEDTALYYCVREGNYDFWSGYYRGFFDLWGRGTLVTVSS VL: DIQMTQSPSSLSASVGDRVTITCRASQGIRNDLGWYQQKPGKAPKRLIYAASSLQGGVPSRFSGSGSGTEFTLTISSLQPEDFATYYCLQHTSYPFTFGQGTKLEIK | 74.5 | 109 | no binding (tested: FOI >=10 = positive)
mAb 99 (antibody, V domains shown) VH: QGQLVESGGGVVQPGRSLRLSCAASGFTFRGFGMHWVRQAPGKGLEWVAIIYYDGKNKYYADSVKGRFTISRDNSKNTLYLQMNSLRAEDTAVYYCAKGGGYNWFDPWGQGTLVTVSS VL: DIQMTQSPSSLSASVGDRVTITCRASQSISTYLNWYQQKPGKAPKLLIYSASSLQSGVPSRFSGSGSGTDFTLTISNLQPEDFAIYYCQRSYSPPFTFGPGTKLDIR | 218 | 198 | no binding (tested: FOI >=10 = positive)
mAb 95 (antibody, V domains shown) VH: QAHLVESGGGVVQPGRSLRLSCSASGFTFSGYGMHWVRQAPGKGLEWVALIYFDGRNKYYADSVKGRFTISRDNSKNTLYLQMNSLRAEDTAVYYCARGGGYNWFDPWGQGTLVTVSS VL: DIQMTQSPSSLSASVGDRVTITCRASQSINNYLSWYQQKPGKAPKLLIYLASNLQSGVPSRFSGSGSGTDFTLTISSLQPEDFATYYCQLSYRSPFTFGPGTKVDVK | 206 | 177 | no binding (tested: FOI >=10 = positive)
mAb 93 (antibody, V domains shown) VH: QVQLVESGGGVVQPGRSLRLSCAASGFTFRGYGMHWVRQAPGKGLEWVAIIYYNGNNKYYADSVKGRFTISRDNSKNTLYLQMNSLRAEDTAVYYCARGGGYNWFDPWGQGTLVTVSS VL: DIQMTQSPSSLSASVGDRVTITCRASQSISNYLNWYQQEPGKAPKLLIYTASSLQSGVPSRFSGSGSGTAFTLTISSLQPEDFAIYYCQRSSSPPFTFGPGTKLDIK | 198 | 175 | no binding (tested: FOI >=10 = positive)
mAb 101 (antibody, V domains shown) VH: QGQLVESGGGVVQPGRSLRLSCAASGFTFRGFGMHWVRQAPGKGLEWVAIIYYDGKNKYYADSVKGRFTISRDNSKNMLYLQMNSLRAEDTAVYYCAKGGGYNWFDPWGQGTLVTVSS VL: DIQMTQSPSSLSASVGDRVTITCRASQSISTYLNWYQQKPGKAPKLLIYSASSLQSGVPSRFSGSGSGTDFTLTISNLQPEDFAIYYCQRSYSPPFTFGPGTKLDIR | 233 | 216 | no binding (tested: FOI >=10 = positive)
mAb 96 (antibody, V domains shown) VH: QAHLVESGGGVVQPGRSLRLSCSASGFTFSGYGMHWVRQAPGKGLEWVSLIYFDGRNKYYADSVKGRFTISRDNSKNTLYLQMNSLRAEDTAVYYCARGGGYNWFDPWGQGTLVTVSS VL: DIQMTQSPSSLSASVGDRVTITCRASQSINNYLSWYQQKPGKAPKLLIYLASNLQSGVPSRFSGNGSGTDFTLTISSLQPEDFATYYCQLSYRSPFTFGPGTKVDVK | 189 | 174 | no binding (tested: FOI >=10 = positive)
